The record followed here is patent US20150011462A1 (Novo Nordisk, published 2015).

The target in test [1] is T1, human GLP-1 receptor (human, UniProt P43220 24-463).
T1 construct: whole, on cells
The test is described as follows: competitive binding (SPA): displacement of 125I-GLP-1(7-36)NH2 from BHK cell membranes with human GLP-1 receptor; low HSA (max. 0.001% final).
Procedure: (§1) For the receptor binding assay in the presence of low HSA (0.005%) 50 μl of the assay buffer was added to each well of an assay plate. […] For the receptor binding assay in the presence of high HSA (2%) 50 μl of the 8% albumin stock was added to each well of an assay plate. […] Cell membrane aliquots were thawed and diluted to their working concentration. Fifty μl were added to each well in the assay plate. […] WGA SPA beads were suspended in assay buffer at 20 mg/ml. The suspension was diluted to 10 mg/ml in assay buffer just prior to addition to the assay plate. Fifty μl were added to each well in the assay plate. […] A 25 μl aliquot was reserved for measuring total counts/well. […] The assay plate was incubated for 2 h at 30° C. […] The assay plate was centrifuged for 10 min. […] The assay plate was read in a Packard TopCount NXT instrument.

Test [2] concerns the target T1, human GLP-1 receptor. The test is described as follows: cell-based or functional assay.
Test [3] concerns the target T1, human GLP-1 receptor. The test is described as follows: competitive binding (SPA): displacement of 125I-GLP-1(7-36)NH2 from BHK cell membranes with human GLP-1 receptor; high HSA (2.0% final). A general note: Loss of bound radioactivity is the signal in a displacement assay; it reports binding, not function.
Procedure: as §1

Numbered stars: 1 amine (or outer) side, 2 acyl side, 3 side chain; on linkers, the order of the positions; unused ones are H or OH. Square brackets hold non-standard residues; d marks the D form. Side chains are listed from the residue outwards. Ends that are not written are not given here. * marks the point of attachment. TtdSuc = 4-[3-[2-[2-(3-aminopropoxy)ethoxy]ethoxy]propylamino]-4-oxobutanoyl; C20 diacid = O=C(O)CCCCCCCCCCCCCCCCCCC(=O)*; C19 diacid = O=C(O)CCCCCCCCCCCCCCCCCC(=O)*; γGlu = O=C(O)[C@H](CCC(=O)[*:2])N[*:1]; Desaminohistidyl = O=C(CCc1c[nH]cn1)*; εLys = N[C@@H](CCCCN[*:1])C(=O)[*:2]; Trx = NC[C@H]1CC[C@H](C(=O)O)CC1; PEG4 = NCCOCCOCCOCCOCCC(=O)O; AEEA = NCCOCCOCC(=O)O; Aib = CC(C)(N)C(=O)O; Inp = O=C(O)C1CCNCC1

B1: N{Epsilon-27}-[2-[2-[2-[[2-[2-[2-[[(4S)-4-carboxy-4-[[4-[(19-carboxynonadecanoylamino)methyl]cyclohexanecarbonyl]amino]butanoyl]amino]ethoxy]ethoxy]acetyl]amino … (peptide)
peptide: H[Aib]EGTFTSDVSSYLEEQAARK([AEEA-AEEA-γGlu-Trx-C20 diacid])FIAWLVRGRGGGGSK([AEEA-AEEA-γGlu-Trx-C20 diacid])
notes: Double-acylated, C-terminally extended GLP-1 analogue made by SPPS
The term IC50 denotes the concentration at which inhibition is half-maximal. Low readings indicate greater potency in that assay, high ones weaker potency in that assay. As for B1, the results for the IC50 in test [1] and in test [3] were 0.75 nM and 275 nM, respectively. The “EC50 (pM), in vitro potency, CRE luciferase reporter gene assay in BHK cells expressing the human GLP-1 receptor” value (from here on “EC50 (pM), in vitro potency”) in test [2] worked out at 55 pM.

B2: N{Alpha}([Aib8,Glu22,Arg26,Arg34]-GLP-1-(7-37)-peptidyl)-N{Epsilon}[2-[2-[2-[[2-[2-[2-[[2-[2-[2-[[2-[2-[2-[[(4S)-4-carboxy-4-(19-carboxynonadecanoylamino)butano … (peptide)
peptide: H[Aib]EGTFTSDVSSYLEEQAAREFIAWLVRGRGK([AEEA-AEEA-AEEA-AEEA-γGlu-C20 diacid])GGSK([AEEA-AEEA-AEEA-AEEA-γGlu-C20 diacid])
notes: Double-acylated, C-terminally extended GLP-1 analogue made by SPPS; also called 19
On to B2, for which the 50% inhibitory concentration (IC50) in test [1] worked out at 2.4 nM; in test [3], 142 nM. In addition, the “EC50 (pM), in vitro potency” value in test [2] was determined as 6.2 pM.

B3: N{Alpha}([AAib8,Glu22,Arg26,Arg34]-GLP-1-(7-37)-peptidyl)-N{Epsilon}[2-[2-[3-[2-[2-[3-[[(4S)-4-carboxy-4-(19-carboxynonadecanoylamino)butanoyl]amino]propoxy]eth … (peptide)
peptide: HXEGTFTSDVSSYLEEQAAREFIAWLVRGRGKGGSK
modifications: Aib at position 8; N-epsilon of Lys38 and of Lys42 each acylated with C20 diacid (19-carboxynonadecanoyl)-gGlu-TotaGlyc (GLP-1(7-37) numbering = sequence-listing position + 6)
notes: Double-acylated, C-terminally extended GLP-1 analogue made by SPPS; The printed name has 'AAib8' (typographic slip for Aib8); also called 22
For the molecule B3, the results for the half-inhibitory concentration (IC50) in test [1] and in test [3] were 0.82 nM and 194 nM, respectively. In addition, in test [2], the “EC50 (pM), in vitro potency” value is 10 pM.

B4: N{Alpha}([Aib8,Glu22,Arg26,Arg34]-GLP-1-(7-37)-peptidyl)-N{Epsilon}[4-[2-[2-[2-[[(4S)-4-carboxy-4-[[4-[(19-carboxynonadecanoylamino)methyl]cyclohexanecarbonyl]a … (peptide)
peptide: HXEGTFTSDVSSYLEEQAAREFIAWLVRGRGKGGSK
modifications: Aib at position 8; N-epsilon of Lys38 and of Lys42 each acylated with C20 diacid (19-carboxynonadecanoyl)-Trx-gGlu-DooaSuc (GLP-1(7-37) numbering = sequence-listing position + 6)
notes: Double-acylated, C-terminally extended GLP-1 analogue made by SPPS; also called 23
With B4, the IC50 in test [1] turned out to be 1.4 nM; in test [3], 201 nM. In test [2], the “EC50 (pM), in vitro potency” value came to 22 pM.

B5: N{Alpha}([Imp … (peptide)
peptide: [Desaminohistidyl][Aib]EGTFTSDVSSYLEEQAAREFIAWLVRGRGK([AEEA-AEEA-AEEA-AEEA-γGlu-Trx-C20 diacid])GGSK([AEEA-AEEA-AEEA-AEEA-γGlu-Trx-C20 diacid])
notes: Double-acylated, C-terminally extended GLP-1 analogue made by SPPS; also called 18
B5: the IC50 in test [1] was found to be 2.3 nM; in test [3], 219 nM. The “EC50 (pM), in vitro potency” value in test [2] came out at 13 pM.

B6: N{Alpha}([Aib8,Glu22,Arg26,Arg34]-GLP-1-(7-37)-peptidyl)-N{Epsilon}[2-[2-[2-[[2-[2-[2-[[(4S)-4-carboxy-4-[[4-[(18-carboxyoctadecanoylamino)methyl]cyclohexanecar … (peptide)
peptide: H[Aib]EGTFTSDVSSYLEEQAAREFIAWLVRGRGK([AEEA-AEEA-γGlu-Trx-C19 diacid])GGSK([AEEA-AEEA-γGlu-Trx-C19 diacid])
notes: Double-acylated, C-terminally extended GLP-1 analogue made by SPPS; also called 26
With B6, the concentration for half-maximal inhibition (IC50) in test [1] was found to be 0.88 nM; in test [3], 202 nM. For the same molecule, the “EC50 (pM), in vitro potency” value in test [2] is 13 pM.

B7: N{Alpha}([Imp … (peptide)
peptide: [Desaminohistidyl][Aib]EGTFTSDVSSYLEEQAAREFIAWLVRGRGK([AEEA-AEEA-AEEA-AEEA-γGlu-C20 diacid])GGSK([AEEA-AEEA-AEEA-AEEA-γGlu-C20 diacid])
notes: Double-acylated, C-terminally extended GLP-1 analogue made by SPPS; also called 20
In the case of B7, the 50% inhibitory concentration (IC50) in test [1] worked out at 4.1 nM; in test [3], 270 nM. The “EC50 (pM), in vitro potency” value in test [2] amounted to 8.4 pM.

B8: N{Epsilon-36}-[2-[2-[2-[[2-[2-[2-[[(4S)-4-carboxy-4-[[4-[(19-carboxynonadecanoylamino)methyl]cyclohexanecarbonyl]amino]butanoyl]amino]ethoxy]ethoxy]acetyl]amino … (peptide)
peptide: H[Aib]EGTFTSDVSSYLEEQAAREFIAWLVRGK([AEEA-AEEA-γGlu-Trx-C20 diacid])GAESPK([AEEA-AEEA-γGlu-Trx-C20 diacid])
notes: Double-acylated, C-terminally extended GLP-1 analogue made by SPPS; also called 14
Consider B8, for which the IC50 was found to be 1.5 nM in test [1] and 530 nM in test [3]. Besides, the “EC50 (pM), in vitro potency” value in test [2] came out at 22 pM.

B9: N{Epsilon-36}-[2-[2-[2-[[2-[2-[2-[[(4S)-4-carboxy-4-[[4-[(19-carboxynonadecanoylamino)methyl]cyclohexanecarbonyl]amino]butanoyl]amino]ethoxy]ethoxy]acetyl]amino … (peptide)
peptide: H[Aib]EGTFTSDVSSYLEEQAAREFIAWLVRGK([AEEA-AEEA-γGlu-Trx-C20 diacid])GPASEK([AEEA-AEEA-γGlu-Trx-C20 diacid])
notes: Double-acylated, C-terminally extended GLP-1 analogue made by SPPS; also called 15
On to B9, for which the IC50 in test [1] was determined as 1.6 nM; in test [3], 928 nM. Also, the “EC50 (pM), in vitro potency” value in test [2] turned out to be 20 pM.

B10: N{Alpha}([Aib8,Glu22,Arg26,Arg34]-GLP-1-(7-37)-peptidyl)-N{Epsilon}[2-[2-[2-[[2-[2-[2-[[2-[2-[2-[[2-[2-[2-[[(2S)-2-amino-6-[[(2S)-2-amino-6-(19-carboxynonadecan … (peptide)
peptide: H[Aib]EGTFTSDVSSYLEEQAAREFIAWLVRGRGK([AEEA-AEEA-AEEA-AEEA-εLys-εLys-C20 diacid])GGSK([AEEA-AEEA-AEEA-AEEA-εLys-εLys-C20 diacid])
notes: Double-acylated, C-terminally extended GLP-1 analogue made by SPPS; also called 25
Consider B10, for which the half-inhibitory concentration (IC50) was found to be 0.22 nM in test [1] and 38 nM in test [3]. Besides, the “EC50 (pM), in vitro potency” value in test [2] amounted to 10 pM.

B11: N{Alpha}([Aib8,Glu22,Arg26,Arg34]-GLP-1-(7-37)-peptidyl)-N{Epsilon}3-[2-[2-[2-[2-[[(4S)-4-carboxy-4-[[4-[(19-carboxynonadecanoylamino)methyl]cyclohexanecarbonyl … (peptide)
peptide: H[Aib]EGTFTSDVSSYLEEQAAREFIAWLVRGRGK([PEG4-γGlu-Trx-C20 diacid])GGSK([PEG4-γGlu-Trx-C20 diacid])
notes: Double-acylated, C-terminally extended GLP-1 analogue made by SPPS; also called 10
Regarding B11, the values for the 50% inhibitory concentration (IC50) in test [1] and in test [3] were 1.3 nM and 123 nM, respectively. The “EC50 (pM), in vitro potency” value in test [2] is 27 pM.

B12: N{Alpha}([Aib8,Glu22,Arg26,Arg34]-GLP-1-(7-37)-peptidyl)-N{Epsilon}[4-[3-[2-[2-[3-[[(4S)-4-carboxy-4-[[1-(19-carboxynonadecanoyl)piperidine-4-carbonyl]amino]but … (peptide)
peptide: H[Aib]EGTFTSDVSSYLEEQAAREFIAWLVRGRGK([TtdSuc-γGlu-Inp-C20 diacid])GGSK([TtdSuc-γGlu-Inp-C20 diacid])
notes: Double-acylated, C-terminally extended GLP-1 analogue made by SPPS; also called 21
As for B12, the 50% inhibitory concentration (IC50) worked out at 1.3 nM in test [1] and 177 nM in test [3]. In addition, in test [2], the “EC50 (pM), in vitro potency” value came out at 19 pM.
